Reference: patent US20200283528A1 (NUMAB THERAPEUTICS, published 2020)

What was measured:
[1] = molecular target: T1, human PDL1 expressed on cells (human, UniProt Q9NZQ7 19-290); test: cell-based or functional assay
[2] = molecular target: cynomolgus PDL1, recombinant (Sino Biological) / PDL1-Fc chimeric protein (cynomolgus (Macaca fascicularis), UniProt G7PSE7 19-238); test: SPR Biacore T200; cynomolgus PDL1 (Sino Biological) captured; scFv as analyte
Protocol: After each analyte injection cycle, the CM5 sensor chip was regenerated and new antigen was captured. The scFvs were injected as analyte using a dose response multicycle kinetic assay with concentrations of the analyte ranging from 0.12 to 30 nM diluted in running buffer for 5 min and dissociation of the protein was allowed to proceed for 12 min. Obtained sensorgrams were fitted using the 1:1 binding model.

[3] = molecular target: T2, human PDL1 (recombinant, soluble) (human, UniProt Q9NZQ7 19-238); test: PDL1/B7-1 competition ELISA; B7-1 coated, biotinylated PDL1 40 ng/ml
T2 construct: also called hPDL1; hPD-L1
Protocol: (§1) ELISA microplates coated overnight at 4° C. with 4 μg/ml human B7-1 were washed three times with 450 μl wash buffer per well. Plates were blocked for 1 hour at room temperature by adding 300 μl of PBS with 1% BSA and 0.2% tween (dilution buffer) to each well. […] The mixtures were pre-incubated for 1 hour at room temperature under gentle agitation on a rotating mixer (21 rpm) and added to the microplates after 3 wash cycles with 450 μl wash buffer per well. Plates were incubated for 1.5 hours at room temperature under gentle agitation, then 10 ng/ml streptavidin-polyHRP40 was added to each microplate well after three washes with 450 μl of wash buffer per well. After 1 h incubation at RT, plates were washed three times with 450 μl wash buffer and TMB substrate solution was added. The enzymatic reaction was stopped after 6 minutes by addition of 1 M HCl and absorbance was measured at 450 nm using 690 nm as a reference wavelength. For calculation of IC₅₀ values, a four-parameter logistic (4PL) curve fit was performed in Graph Pad Prism using reference subtracted values.

[4] = molecular target: T2, human PDL1 (recombinant, soluble); test: PDL1/PD-1 competition ELISA; PD-1 coated, biotinylated PDL1 1 ng/ml
Protocol: as §1, with “PD-1” for “B7-1”

[5] = molecular target: T1, human PDL1 expressed on cells; test: cell-based or functional assay; remark: listed apart in the source

Sequence of cynomolgus PDL1, recombinant (Sino Biological) / PDL1-Fc chimeric protein (G7PSE7 entry or part of it mutant limits assumed): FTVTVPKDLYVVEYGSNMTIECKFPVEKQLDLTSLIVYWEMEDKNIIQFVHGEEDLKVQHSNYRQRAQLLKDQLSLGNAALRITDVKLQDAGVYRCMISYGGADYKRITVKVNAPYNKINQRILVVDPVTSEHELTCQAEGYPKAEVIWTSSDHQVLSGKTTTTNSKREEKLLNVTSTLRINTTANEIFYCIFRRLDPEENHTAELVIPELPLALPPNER

IC50 [3] [µg/mL]	IC50 [4] [µg/mL]	NF-AT potency assay IC50 [5] [µg/mL]	Binder	also measured
–	–	–	PRO1347 (37-20-B03-sc09 scFv) (scFv) DIQMTQSPASLSASVGDRVTITCQASQSIGTYLAWYQQKPGKPPKLLIYRAFILASGVPSRFSGSGSGTDFTLTISSLQPEDFATYYCQSNFYSDSTTIGPNAFGTGTKVTVLGGGGGSGGGGSGGGGSGGGGSEVQLVESGGGLVQPGGSLRLSCAASGFSFNSDYWIYWVRQAPGKGLEWIACIYGGSSGNTQYASWAQGRFTISRDNSKNTVYLQMNSLRAEDTAVYFCARGYVDYGGATDLWGQGTLVTVSS	reporter gene assay IC50 [1]: 0.00753 µg/mL; reporter gene assay Maximum Inhibition (%) [1]: 88.9%; KD, cyno/KD, human [2]: 1.41; Kd [2]: 0.0127 nM; koff [2]: 8.77e-05 s⁻¹; kon [2]: 6.88e+06 M⁻¹ s⁻¹
0.0174	0.00567	0.133	PRO1060 (33-03-G02 IgG1 HC with 38_02_A04 sc01 scFv, PDL1/CD137 (scFv) silent Morrison) (bispecific antibody, also called Morrison-H) light: DIQMTQSPSSLSASVGDRVTITCQASQSINDYLAWYQQKPGKAPKLLIYKASTLASGVPSRFSGSGSGTDFTLTISSLQPEDFATYYCQQGYIITDIDNVFGTGTKVTVLGTVAAPSVFIFPPSDEQLKSGTASVVCLLNNFYPREAKVQWKVDNALQSGNSQESVTEQDSKDSTYSLSSTLTLSKADYEKHKVYACEVTHQGLSSPVTKSFNRGEC heavy: QVQLQESGPGLVKPSETLSLTCKVSGFSFSSGYDMCWIRQPPGKGLEWIGCVVAGSVDITYYASWAKGRVTISVDSSKNQFSLKLSSVTAADTAVYYCARKDAYSDAFNLWGQGTLVTVSSASTKGPSVFPLAPSSKSTSGGTAALGCLVKDYFPEPVTVSWNSGALTSGVHTFPAVLQSSGLYSLSSVVTVPSSSLGTQTYICNVNHKPSNTKVDKRVEPKSCDKTHTCPPCPAPEAAGGPSVFLFPPKPKDTLMISRTPEVTCVVVDVSHEDPEVKFNWYVDGVEVHNAKTKPREEQYNSTYRVVSVLTVLHQDWLNGKEYKCKVSNKALGAPIEKTISKAKGQPREPQVYTLPPSREEMTKNQVSLTCLVKGFYPSDIAVEWESNGQPENNYKTTPPVLDSDGSFFLYSKLTVDKSRWQQGNVFSCSVMHEALHNHYTQKSLSLSPGKGGGGSGGGGSIQMTQSPSSLSASVGDRVTITCQASQSINNVLAWYQQKPGKAPKLLIYRASTLASGVPSRFSGSGSGTDFTLTISSLQPEDFATYYCQSSYGNYGDFGTGTKVTVLGGGGGSGGGGSGGGGSGGGGSQVQLQESGPGLVKPSETLSLTCKVSGFSFSNSYWICWIRQPPGKGLEWIGCTFVGSSDSTYYANWAKGRVTISVDSSKNQFSLKLSSVTAADTAVYYCARHPSDAVYGYANNLWGQGTLVTVSS	–
0.0195	0.0113	–	PRO1062 (33-03-G02 sc01 IgG1 HC with 38_27_C05 sc01 scFv, PDL1/CD137 (scFv) silent Morrison) (bispecific antibody, also called Morrison-H) light: DIQMTQSPSSLSASVGDRVTITCQASQSINDYLAWYQQKPGKAPKLLIYKASTLASGVPSRFSGSGSGTDFTLTISSLQPEDFATYYCQQGYIITDIDNVFGTGTKVTVLGTVAAPSVFIFPPSDEQLKSGTASVVCLLNNFYPREAKVQWKVDNALQSGNSQESVTEQDSKDSTYSLSSTLTLSKADYEKHKVYACEVTHQGLSSPVTKSFNRGEC heavy: QVQLQESGPGLVKPSETLSLTCKVSGFSFSSGYDMCWIRQPPGKGLEWIGCVVAGSVDITYYASWAKGRVTISVDSSKNQFSLKLSSVTAADTAVYYCARKDAYSDAFNLWGQGTLVTVSSASTKGPSVFPLAPSSKSTSGGTAALGCLVKDYFPEPVTVSWNSGALTSGVHTFPAVLQSSGLYSLSSVVTVPSSSLGTQTYICNVNHKPSNTKVDKRVEPKSCDKTHTCPPCPAPEAAGGPSVFLFPPKPKDTLMISRTPEVTCVVVDVSHEDPEVKFNWYVDGVEVHNAKTKPREEQYNSTYRVVSVLTVLHQDWLNGKEYKCKVSNKALGAPIEKTISKAKGQPREPQVYTLPPSREEMTKNQVSLTCLVKGFYPSDIAVEWESNGQPENNYKTTPPVLDSDGSFFLYSKLTVDKSRWQQGNVFSCSVMHEALHNHYTQKSLSLSPGKGGGGSGGGGSIQMTQSPSSLSASVGDRVTITCQASQSINNVLAWYQQKPGKAPKLLIYRASTLASGVPSRFSGSGSGTDFTLTISSLQPEDFATYYCQSSYGNYGDFGTGTKVTVLGGGGGSGGGGSGGGGSGGGGSQVQLQESGPGLVKPSETLSLTCKVSGFSFSNSYWICWIRQPPGKGLEWIGCTFVGSSDSTYYANWAKGRVTISVDSSKNQFSLKLSSVTAADTAVYYCARHPSDAVYGYANNLWGQGTLVTVSS	–
0.00405	0.00057	0.0213	PRO1013 (37-20-B03-sc02 scFv) (scFv, also called 37-20-B03 CDR, VH1) scFv: DIQMTQSPSSLSASVGDRVTITCQASQSIGTYLAWYQQKPGKAPKLLIYRAFILASGVPSRFSGSGSGTDFTLTISSLQPEDFATYYCQSNFYSDSTTIGPNAFGTGTKVTVLGGGGGSGGGGSGGGGSGGGGSQVQLVQSGAEVKKPGASVKVSCKASGFSFNSDYWIYWVRQAPGQGLEWMGSIYGGSSGNTQYASWAQGRVTMTRDTSISTAYMELSSLRSEDTAVYYCARGYVDYGGATDLWGQGTLVTVSS	–
0.029	0.00454	0.0938	PRO1059 (33-03-G02 IgG1 LC with 38_02_A04 sc01 scFv, PDL1/CD137 (scFv) silent Morrison) (bispecific antibody, also called Morrison-L) light: DIQMTQSPSSLSASVGDRVTITCQASQSINDYLAWYQQKPGKAPKLLIYKASTLASGVPSRFSGSGSGTDFTLTISSLQPEDFATYYCQQGYIITDIDNVFGTGTKVTVLGTVAAPSVFIFPPSDEQLKSGTASVVCLLNNFYPREAKVQWKVDNALQSGNSQESVTEQDSKDSTYSLSSTLTLSKADYEKHKVYACEVTHQGLSSPVTKSFNRGECGGGGSGGGGSIQMTQSPSSLSASVGDRVTITCQASQSINNVLAWYQQKPGKAPKLLIYRASTLASGVPSRFSGSGSGTDFTLTISSLQPEDFATYYCQSSYGNYGDFGTGTKVTVLGGGGGSGGGGSGGGGSGGGGSQVQLQESGPGLVKPSETLSLTCKVSGFSFSNSYWICWIRQPPGKGLEWIGCTFVGSSDSTYYANWAKGRVTISVDSSKNQFSLKLSSVTAADTAVYYCARHPSDAVYGYANNLWGQGTLVTVSS heavy: QVQLQESGPGLVKPSETLSLTCKVSGFSFSSGYDMCWIRQPPGKGLEWIGCVVAGSVDITYYASWAKGRVTISVDSSKNQFSLKLSSVTAADTAVYYCARKDAYSDAFNLWGQGTLVTVSSASTKGPSVFPLAPSSKSTSGGTAALGCLVKDYFPEPVTVSWNSGALTSGVHTFPAVLQSSGLYSLSSVVTVPSSSLGTQTYICNVNHKPSNTKVDKRVEPKSCDKTHTCPPCPAPEAAGGPSVFLFPPKPKDTLMISRTPEVTCVVVDVSHEDPEVKFNWYVDGVEVHNAKTKPREEQYNSTYRVVSVLTVLHQDWLNGKEYKCKVSNKALGAPIEKTISKAKGQPREPQVYTLPPSREEMTKNQVSLTCLVKGFYPSDIAVEWESNGQPENNYKTTPPVLDSDGSFFLYSKLTVDKSRWQQGNVFSCSVMHEALHNHYTQKSLSLSPGK	–
–	–	–	PRO963 (= PRO1051)(38_02_A04 sc01 scDb-i/33-03-G02 sc01 scDb-o/19-01-H04-sc03 scFv) (other) DIQMTQSPSSLSASVGDRVTITCQASQSINDYLAWYQQKPGKAPKLLIYKASTLASGVPSRFSGSGSGTDFTLTISSLQPEDFATYYCQQGYIITDIDNVFGTGTKVTVLGGGGGSQVQLQESGPGLVKPSETLSLTCKVSGFSFSNSYWICWIRQPPGKGLEWIGCTFVGSSDSTYYANWAKGRVTISVDSSKNQFSLKLSSVTAADTAVYYCARHPSDAVYGYANNLWGQGTLVTVSSGGGGSGGGGSGGGGSGGGGSIQMTQSPSSLSASVGDRVTITCQASQSINNVLAWYQQKPGKAPKLLIYRASTLASGVPSRFSGSGSGTDFTLTISSLQPEDFATYYCQSSYGNYGDFGTGTKVTVLGGGGGSQVQLQESGPGLVKPSETLSLTCKVSGFSFSSGYDMCWIRQPPGKGLEWIGCVVAGSVDITYYASWAKGRVTISVDSSKNQFSLKLSSVTAADTAVYYCARKDAYSDAFNLWGQGTLVTVSSGGGGSGGGGSIQMTQSPSSLSASVGDRVTITCQSSESVYSNNQLSWYQQKPGQPPKLLIYDASDLASGVPSRFSGSGSGTDFTLTISSLQPEDFATYYCAGGFSSSSDTAFGGGTKLTVLGGGGGSGGGGSGGGGSGGGGSEVQLVESGGGLVQPGGSLRLSCAASGFSLSSNAMGWVRQAPGKGLEYIGIISVGGFTYYASWAKGRFTISRDNSKNTVYLQMNSLRAEDTATYFCARDRHGGDSSGAFYLWGQGTLVTVSS	NF-AT potency assay IC50 (with HSA) [5]: 0.275 µg/mL
0.0093	0.0095	0.0885	PRO951 (38-27-C05 sc02 scDb-i/33-03-G02 sc01 scDb-o) (bispecific antibody) DIQMTQSPSSLSASVGDRVTITCQASQSINDYLAWYQQKPGKAPKLLIYKASTLASGVPSRFSGSGSGTDFTLTISSLQPEDFATYYCQQGYIITDIDNVFGTGTKVTVLGGGGGSEVQLVESGGGLVQPGGSLRLSCAASGFSFNNDYDMCWVRQAPGKGLEWIGCIDTGDGSTYYASWAKGRFTISRDNSKNTVYLQMNSLRAEDTAVYYCAREAASSSGYGMGYFDLWGQGTLVTVSSGGGGSGGGGSGGGGSGGGGSIQMTQSPSSLSASVGDRVTITCQSSQSVYDNNWLAWYQQKPGKAPKLLIYRASNLASGVPSRFSGSGSGTDFTLTISSLQPEDFATYYCQGTYLSSNWYWAFGTGTKVTVLGGGGGSQVQLQESGPGLVKPSETLSLTCKVSGFSFSSGYDMCWIRQPPGKGLEWIGCVVAGSVDITYYASWAKGRVTISVDSSKNQFSLKLSSVTAADTAVYYCARKDAYSDAFNLWGQGTLVTVSS	–
